Measured values as given in US20240209062A1 (INVETX, published 2024).

B1: IgG with feline IgG1a Fc variant S428L, R392E (antibody)
heavy: DVQLVESGGDLVKPGGSLRLTCVASGLSLTSDSMSWVRQAPGKGLQWVSTLWSNRGTYYTDSVKGRFTISKDNAENTLYLQMNNLKTEDTATYYCASIYYYEADYLHWYFDFWGQGALVTVSSASTTAPSVFPLAPSCGTTSGATVALACLVLGYFPEPVTVSWNSGALTSGVHTFPAVLQASGLYSLSSMVTVPSSRWLSDTFTCNVAHPPSNTKVDKTVRKTDHPPGPKPCDCPKCPPPEAAGGPSIFIFPPKPKDTLSISRTPEVTCLVVDLGPDDSDVQITWFVDNTQVYTAKTSPREEQFNSTYRVVSVLPILHQDWLKGKEFKCKVNSKSLPSPIERTISKAKGQPHEPQVYVLPPAQEELSRNKVSVTCLIKSFHPPDIAVEWEITGQPEPENNYETTPPQLDSDGTYFVYSKLSVDRSHWQRGNTYTCSVLHEALHSHHTQKSLTQSPG
light: EIQMTQSPTSLSASVGDRVTITCRASEGIANNLSWYQQTPGKAPKLLIYATSNLHSGVPSRFSGSGSGTDFTLTISSLQPEDFATYYCQQGFKWPLTFGGGTKLEITRSDAQPSVFLFQPSLDELHTGSASIVCILNDFYPKEVNVKWKVDGVVQNKGIQESTTEQNSKDSTYSLSSTLTMSSTEYQSHEKFSCEVTHKSLASTLVKSFNRSECQRE
notes: IgG1a constant domain with MALA mutations (M234A, L244A as printed); variable domains from WO 2023/97275
B2: IgG with feline IgG1a Fc variant S428L, T286D (antibody)
heavy: DVQLVESGGDLVKPGGSLRLTCVASGLSLTSDSMSWVRQAPGKGLQWVSTLWSNRGTYYTDSVKGRFTISKDNAENTLYLQMNNLKTEDTATYYCASIYYYEADYLHWYFDFWGQGALVTVSSASTTAPSVFPLAPSCGTTSGATVALACLVLGYFPEPVTVSWNSGALTSGVHTFPAVLQASGLYSLSSMVTVPSSRWLSDTFTCNVAHPPSNTKVDKTVRKTDHPPGPKPCDCPKCPPPEAAGGPSIFIFPPKPKDTLSISRTPEVTCLVVDLGPDDSDVQITWFVDNTQVYDAKTSPREEQFNSTYRVVSVLPILHQDWLKGKEFKCKVNSKSLPSPIERTISKAKGQPHEPQVYVLPPAQEELSRNKVSVTCLIKSFHPPDIAVEWEITGQPEPENNYRTTPPQLDSDGTYFVYSKLSVDRSHWQRGNTYTCSVLHEALHSHHTQKSLTQSPG
light: EIQMTQSPTSLSASVGDRVTITCRASEGIANNLSWYQQTPGKAPKLLIYATSNLHSGVPSRFSGSGSGTDFTLTISSLQPEDFATYYCQQGFKWPLTFGGGTKLEITRSDAQPSVFLFQPSLDELHTGSASIVCILNDFYPKEVNVKWKVDGVVQNKGIQESTTEQNSKDSTYSLSSTLTMSSTEYQSHEKFSCEVTHKSLASTLVKSFNRSECQRE
notes: as for B1
B3: IgG with feline IgG1a Fc variant S428M (antibody)
heavy: DVQLVESGGDLVKPGGSLRLTCVASGLSLTSDSMSWVRQAPGKGLQWVSTLWSNRGTYYTDSVKGRFTISKDNAENTLYLQMNNLKTEDTATYYCASIYYYEADYLHWYFDFWGQGALVTVSSASTTAPSVFPLAPSCGTTSGATVALACLVLGYFPEPVTVSWNSGALTSGVHTFPAVLQASGLYSLSSMVTVPSSRWLSDTFTCNVAHPPSNTKVDKTVRKTDHPPGPKPCDCPKCPPPEAAGGPSIFIFPPKPKDTLSISRTPEVTCLVVDLGPDDSDVQITWFVDNTQVYTAKTSPREEQFNSTYRVVSVLPILHQDWLKGKEFKCKVNSKSLPSPIERTISKAKGQPHEPQVYVLPPAQEELSRNKVSVTCLIKSFHPPDIAVEWEITGQPEPENNYRTTPPQLDSDGTYFVYSKLSVDRSHWQRGNTYTCSVMHEALHSHHTQKSLTQSPG
light: EIQMTQSPTSLSASVGDRVTITCRASEGIANNLSWYQQTPGKAPKLLIYATSNLHSGVPSRFSGSGSGTDFTLTISSLQPEDFATYYCQQGFKWPLTFGGGTKLEITRSDAQPSVFLFQPSLDELHTGSASIVCILNDFYPKEVNVKWKVDGVVQNKGIQESTTEQNSKDSTYSLSSTLTMSSTEYQSHEKFSCEVTHKSLASTLVKSFNRSECQRE
notes: as for B1
B4: IgG with feline IgG1a Fc variant S428M, I377L (antibody)
heavy: DVQLVESGGDLVKPGGSLRLTCVASGLSLTSDSMSWVRQAPGKGLQWVSTLWSNRGTYYTDSVKGRFTISKDNAENTLYLQMNNLKTEDTATYYCASIYYYEADYLHWYFDFWGQGALVTVSSASTTAPSVFPLAPSCGTTSGATVALACLVLGYFPEPVTVSWNSGALTSGVHTFPAVLQASGLYSLSSMVTVPSSRWLSDTFTCNVAHPPSNTKVDKTVRKTDHPPGPKPCDCPKCPPPEAAGGPSIFIFPPKPKDTLSISRTPEVTCLVVDLGPDDSDVQITWFVDNTQVYTAKTSPREEQFNSTYRVVSVLPILHQDWLKGKEFKCKVNSKSLPSPIERTISKAKGQPHEPQVYVLPPAQEELSRNKVSVTCLIKSFHPPDLAVEWEITGQPEPENNYRTTPPQLDSDGTYFVYSKLSVDRSHWQRGNTYTCSVMHEALHSHHTQKSLTQSPG
light: EIQMTQSPTSLSASVGDRVTITCRASEGIANNLSWYQQTPGKAPKLLIYATSNLHSGVPSRFSGSGSGTDFTLTISSLQPEDFATYYCQQGFKWPLTFGGGTKLEITRSDAQPSVFLFQPSLDELHTGSASIVCILNDFYPKEVNVKWKVDGVVQNKGIQESTTEQNSKDSTYSLSSTLTMSSTEYQSHEKFSCEVTHKSLASTLVKSFNRSECQRE
notes: Printed '1377L' read as I377L; IgG1a constant domain with MALA mutations (M234A, L244A as printed); variable domains from WO 2023/97275; also called S428M, 1377L
B5: IgG with feline IgG1a Fc variant S428M, I377Y (antibody)
heavy: DVQLVESGGDLVKPGGSLRLTCVASGLSLTSDSMSWVRQAPGKGLQWVSTLWSNRGTYYTDSVKGRFTISKDNAENTLYLQMNNLKTEDTATYYCASIYYYEADYLHWYFDFWGQGALVTVSSASTTAPSVFPLAPSCGTTSGATVALACLVLGYFPEPVTVSWNSGALTSGVHTFPAVLQASGLYSLSSMVTVPSSRWLSDTFTCNVAHPPSNTKVDKTVRKTDHPPGPKPCDCPKCPPPEAAGGPSIFIFPPKPKDTLSISRTPEVTCLVVDLGPDDSDVQITWFVDNTQVYTAKTSPREEQFNSTYRVVSVLPILHQDWLKGKEFKCKVNSKSLPSPIERTISKAKGQPHEPQVYVLPPAQEELSRNKVSVTCLIKSFHPPDYAVEWEITGQPEPENNYRTTPPQLDSDGTYFVYSKLSVDRSHWQRGNTYTCSVMHEALHSHHTQKSLTQSPG
light: EIQMTQSPTSLSASVGDRVTITCRASEGIANNLSWYQQTPGKAPKLLIYATSNLHSGVPSRFSGSGSGTDFTLTISSLQPEDFATYYCQQGFKWPLTFGGGTKLEITRSDAQPSVFLFQPSLDELHTGSASIVCILNDFYPKEVNVKWKVDGVVQNKGIQESTTEQNSKDSTYSLSSTLTMSSTEYQSHEKFSCEVTHKSLASTLVKSFNRSECQRE
notes: Printed '1377Y' read as I377Y; IgG1a constant domain with MALA mutations (M234A, L244A as printed); variable domains from WO 2023/97275; also called S428M, 1377Y
B6: IgG with feline IgG1a Fc variant S428M, L309D (antibody)
heavy: DVQLVESGGDLVKPGGSLRLTCVASGLSLTSDSMSWVRQAPGKGLQWVSTLWSNRGTYYTDSVKGRFTISKDNAENTLYLQMNNLKTEDTATYYCASIYYYEADYLHWYFDFWGQGALVTVSSASTTAPSVFPLAPSCGTTSGATVALACLVLGYFPEPVTVSWNSGALTSGVHTFPAVLQASGLYSLSSMVTVPSSRWLSDTFTCNVAHPPSNTKVDKTVRKTDHPPGPKPCDCPKCPPPEAAGGPSIFIFPPKPKDTLSISRTPEVTCLVVDLGPDDSDVQITWFVDNTQVYTAKTSPREEQFNSTYRVVSVLPIDHQDWLKGKEFKCKVNSKSLPSPIERTISKAKGQPHEPQVYVLPPAQEELSRNKVSVTCLIKSFHPPDIAVEWEITGQPEPENNYRTTPPQLDSDGTYFVYSKLSVDRSHWQRGNTYTCSVMHEALHSHHTQKSLTQSPG
light: EIQMTQSPTSLSASVGDRVTITCRASEGIANNLSWYQQTPGKAPKLLIYATSNLHSGVPSRFSGSGSGTDFTLTISSLQPEDFATYYCQQGFKWPLTFGGGTKLEITRSDAQPSVFLFQPSLDELHTGSASIVCILNDFYPKEVNVKWKVDGVVQNKGIQESTTEQNSKDSTYSLSSTLTMSSTEYQSHEKFSCEVTHKSLASTLVKSFNRSECQRE
notes: as for B1

molecular target: T1, feline FcRn (soluble portion of large subunit p51 isoform X1 with C-terminal 6xHis-tag, co-expressed with … (feline, UniProt Q5MGS7 21-118)); test: SPR, Biacore T200, IgG captured on Protein L chip, feline FcRn flowed over, pH 5.9, 1:1 fit
T1 construct: Heterodimer made by co-expression in CHO cells, purified on HisTrap FF; also called FcRn complex
T1 sequence (chain, as listed by the source limits assumed, chain 1 of 2): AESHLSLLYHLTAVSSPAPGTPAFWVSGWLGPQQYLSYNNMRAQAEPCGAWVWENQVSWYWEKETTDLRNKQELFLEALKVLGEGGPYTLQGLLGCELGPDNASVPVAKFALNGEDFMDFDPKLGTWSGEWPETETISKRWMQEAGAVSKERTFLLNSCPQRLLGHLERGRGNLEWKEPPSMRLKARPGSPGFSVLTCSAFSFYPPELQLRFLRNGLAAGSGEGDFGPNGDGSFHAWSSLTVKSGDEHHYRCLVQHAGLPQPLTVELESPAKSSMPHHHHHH
T1 sequence (Q5MGS7 other isoform, or with tags, fused parts or gaps limits assumed, chain 2 of 2): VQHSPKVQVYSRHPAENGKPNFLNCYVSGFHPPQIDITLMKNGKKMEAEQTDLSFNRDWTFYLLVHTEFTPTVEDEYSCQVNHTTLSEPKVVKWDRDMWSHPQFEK
Protocol: The feline FcRn binding experiments at pH 5.9 were completed on a BIACORE™ T200 instrument. A Series S Protein L Sensor chip (Cytiva, Cat. No. BR29205137) was used to capture the antibody variants via the kappa (κ) light chain. The feline variants were captured onto the protein L chip at a flow rate of 10 μL/min for 60 seconds. 1×PBX-P+(Cytiva Cat 28995084) was adjusted to pH 5.9 for the running buffer. The feline FcRn was flowed over the sensor chip at 30 μL/min for 120 seconds contact time and 600 seconds dissociation time. Regeneration of the flow cells was completed by flowing over 10 mM glycine, pH 1.7 at 30 μL/min for 30 seconds. The data were evaluated by the BIACORE™T200 Evaluation software v3.2.1 by fitting to a 1:1 kinetic interaction model.

| Binder | Kd [nM] | koff [s⁻¹] | kon [M⁻¹ s⁻¹] |
| --- | --- | --- | --- |
| B1 | 96.5 | 0.0772 | 801000 |
| B2 | 33.4 | 0.0333 | 1e+06 |
| B3 | 70.1 | 0.0702 | 1.01e+06 |
| B4 | 76.2 | 0.0751 | 981000 |
| B5 | 70.8 | 0.0636 | 900000 |
| B6 | 177 | 0.104 | 592000 |
